Measured values: the supplement of paper PMC10567573

B1: CHMP4C (parent)
chain: TNIRLPNVPSSSLPAQPNRKPGMS
B2: FAM164A (parent)
chain: YDPDYIQCPYCQRRFNENAADRHI

Variants of: B1
Assay: protein stability index of a GFP-peptide fusion (GPS, HEK-293T) (PSI 1-6); higher = more stable
Conditions: c terminus: a fixed tail appended
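Note: lentivirally expressed fusions sorted by FACS into six bins by GFP to DsRed ratio, PSI derived from sequencing read proportions per bin multiplied by bin number.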

Protein stability index of substitutions, site by site:
N2: C 3.87; D 4.77; A 4.67
T1: L 3.24; W 3.62; S 4.4; N 4.82; K 4.55; C 4.14; M 4.17; A 4.63; P 4.8; G 4.8; V 3.62; D 4.71; R 4.77; F 3.6; I 3.03; H 4.56; Y 3.71; E 3.75; Q 4.75

Variants of: B2
Assay: as above
Conditions: c terminus: a fixed tail appended

Protein stability index, by site and new letter:
F15: P 2.8; Y 3.47; W 4; C 3.34; V 3.06; H 3.14; I 4.21; D 3.17; N 3.18; L 3.77; K 3.54; E 3.59; T 2.48; S 2.93; A 3.08; G 2.83; R 3.59; Q 3.4; M 3.66
I24: S 4.56; V 4.6; P 4.25; E 4.25; F 3.88; N 4.47; K 4.29; C 4.12; T 4.18; L 3.88; Q 4.57; M 4.03; Y 4.01; G 4.43; W 2.89; A 4.74; H 4.4; R 3.9; D 4.92
R22: A 4.49; H 4.46; G 4.24; L 4.08; N 4.29; E 4.47; F 3.26; K 4.51; P 4.29; W 3.15; D 4.57; T 4.02; Y 3.81; S 4.03; Q 4.59; V 4.17; M 4.48; C 4.43; I 4.03
N16: S 4.56; V 4.39; P 5.53; I 4.75; R 5.19; G 3.71; Y 4.94; H 3.8; T 4.48; L 4.45; D 3.79; Q 4.56; E 3.97; F 4.49; K 4.8; A 4.63; W 4.61; C 4.37; M 4.54
A20: G 3.85; C 4.44; S 4; Q 3.82; M 4.12; T 3.93; V 4.36; K 3.76; I 4.37; R 4.24; F 3.87; Y 3.78; H 3.95; L 4.25; W 3.52; D 4.25; E 4.34; N 4.49; P 3.52
C8: T 4.23; S 3.68; P 3.72; V 3.81; W 2.96; Q 3.7; Y 3.43; R 3.12
C11: P 3.65; Q 3.47; T 3.72; N 4.36; K 3.57; F 3.45; L 3.13; I 3.22; Y 3.45; A 3.48; G 3.75; R 3.06; D 3.81; H 3.69; V 3.57; M 3.65; E 4.23; W 3.42; S 4.03
Y10: I 3.15; C 3.23; S 3.9; L 3.02; P 3.72; A 4.5; N 3.91; K 3.66; T 3.56; G 3.32; W 3.89; F 4.28; R 2.99; M 3.53; D 3.36; H 3.6; E 3.26; Q 3.45; V 3.49
R13: L 2.64; W 2.13; I 2.92; K 4.32
